pKd: −log10 of the molar value.
Experiments:
[1] = target: 6×His-tagged human DSG2 EC1-5 (amino acids A1-A553) from wild-type Expi293F cells (human); assay: BLI; biotinylated DSG2 variants loaded on streptavidin biosensors (immobilized at 1 μg/mL); FimH^LD or FimH^Q133K in solution, 10 μM to 156 nM, 15 min association, 20 min dissociation; 10 mM HEPES pH 7.4, 150 mM NaCl, 1 mM CaCl2, 3 mM EDTA, 0.005% P20, 1% BSA, 25°C; Octet-Red96; global 1:1 fit with drifting baseline; apparent constants
[2] = target: 6×His-tagged human DSG2 EC1-5 (amino acids A1-A553) from Expi293F GnTI- cells (human); assay: as above

“lectin domain of FimH (FimH^LD, amino acids F1-G160) (from UniProt P08191 22-181) (domain or fragment)” gave a pKd [1] of 5.80 and a pKd [2] of 6.32.
